Source: patent US20080119428A1 (ONCOTHERAPY SCIENCE, published 2008)

Target: T1, EPRS (glutamyl-prolyl tRNA synthetase) (UniProt P07814 1-1512)
T1 construct: Endogenous protein in LC319 cell lysate, identified by MALDI-TOF mass spectrometry as a 180-kDa band; also called 180-kDa band
Assay: tandem immunoprecipitation (anti-FLAG M2, then anti-HA) from transfected LC319 lysate, silver-stained SDS-PAGE, MALDI-TOF MS
Procedure: Cell extracts from lung-cancer cell line LC319 transfected with the plasmids expressing N-terminal FLAG-tagged and C-terminal HA-tagged-pCAGGS-IMS-E21 (URLC8) vector or mock vector (control) were pre-cleared by incubation at 4° C. for 1 hour with 100 μL of protein G-agarose beads in a final volume of 2 ml of IP-buffer (0.5% NP-40, 50 mM Tris-HCl, 150 mM NaCl) in the presence of proteinase inhibitor. After centrifugation at 1000 rpm for 5 min at 4° C., the supernatant was incubated at 4° C. with anti-Flag M2 agarose for 2 hours. The beads were then collected by centrifugation at 5000 rpm for 2 min and washed six times with 1 ml of each immunoprecipitation buffer. Then, the washed beads were eluted by Flag-peptide (Sigma-Aldrich Co., St. Louis, Mo.). The elution was incubated at 4° C. with anti-HA agarose for 2 hours. The washed beads were resuspended in 50 μL of Laemmli sample buffer and boiled for 5 min, and the proteins were separated by 5-10% SDS PAGE gels (BIO RAD). After electrophoresis, the gels were stained with silver. Protein bands specifically found in IMS-E21 (URLC8)- transfected extracts were excised and served for matrix-assisted laser desorption/ionization-time of flight mass spectrometry (MALDI-TOF-MS) analysis (AXIMA-CFR plus, SHIMADZU BIOTECH, Kyoto, Japan). […]

T1 sequence (P07814 whole entry): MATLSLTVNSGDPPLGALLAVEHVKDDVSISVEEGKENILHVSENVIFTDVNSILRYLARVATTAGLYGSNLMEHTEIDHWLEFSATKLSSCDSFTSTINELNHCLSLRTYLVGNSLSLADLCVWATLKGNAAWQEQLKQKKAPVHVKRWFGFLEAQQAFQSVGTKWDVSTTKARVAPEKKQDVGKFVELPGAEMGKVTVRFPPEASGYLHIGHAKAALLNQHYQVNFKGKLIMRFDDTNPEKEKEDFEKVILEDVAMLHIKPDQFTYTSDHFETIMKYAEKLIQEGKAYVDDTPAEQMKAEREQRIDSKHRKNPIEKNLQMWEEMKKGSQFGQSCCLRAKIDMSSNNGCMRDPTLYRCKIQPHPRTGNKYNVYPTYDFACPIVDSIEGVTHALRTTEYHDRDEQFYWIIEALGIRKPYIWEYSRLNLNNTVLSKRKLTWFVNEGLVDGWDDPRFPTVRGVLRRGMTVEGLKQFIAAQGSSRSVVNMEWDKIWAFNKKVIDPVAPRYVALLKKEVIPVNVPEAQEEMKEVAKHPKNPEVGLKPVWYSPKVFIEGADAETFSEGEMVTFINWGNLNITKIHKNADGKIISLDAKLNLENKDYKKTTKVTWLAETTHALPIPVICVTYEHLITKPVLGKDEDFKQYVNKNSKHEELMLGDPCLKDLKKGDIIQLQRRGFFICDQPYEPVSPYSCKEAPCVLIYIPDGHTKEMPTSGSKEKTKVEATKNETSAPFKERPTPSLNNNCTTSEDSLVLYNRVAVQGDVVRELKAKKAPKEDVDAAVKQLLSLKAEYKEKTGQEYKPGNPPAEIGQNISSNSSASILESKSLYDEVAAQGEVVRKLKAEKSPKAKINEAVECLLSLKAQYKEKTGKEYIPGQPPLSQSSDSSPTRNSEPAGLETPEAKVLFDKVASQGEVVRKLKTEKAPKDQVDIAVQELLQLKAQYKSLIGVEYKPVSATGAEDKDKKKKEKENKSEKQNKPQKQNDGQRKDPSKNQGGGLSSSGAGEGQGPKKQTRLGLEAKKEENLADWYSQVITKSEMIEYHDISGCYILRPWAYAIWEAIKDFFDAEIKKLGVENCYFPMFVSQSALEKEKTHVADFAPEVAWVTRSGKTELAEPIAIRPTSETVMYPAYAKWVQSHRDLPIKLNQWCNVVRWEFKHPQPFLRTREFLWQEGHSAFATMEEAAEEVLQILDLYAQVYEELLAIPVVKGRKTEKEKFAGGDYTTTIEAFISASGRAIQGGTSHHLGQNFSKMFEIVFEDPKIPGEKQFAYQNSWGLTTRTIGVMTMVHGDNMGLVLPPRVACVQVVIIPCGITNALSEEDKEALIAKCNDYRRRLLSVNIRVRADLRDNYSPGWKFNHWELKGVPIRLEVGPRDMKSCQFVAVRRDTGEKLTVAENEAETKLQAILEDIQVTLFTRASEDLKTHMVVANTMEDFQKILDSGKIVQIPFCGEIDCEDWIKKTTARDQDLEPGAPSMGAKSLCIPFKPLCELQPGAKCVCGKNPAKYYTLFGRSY

B1: N-terminal FLAG-tagged and C-terminal HA-tagged IMS-E21 (URLC8) (enzyme)
chain: MILNSLSLCYHNKLILAPMVRVGTLPMRLLALDYGADIVYCEELIDLKMIQCKRVVNEVLSTVDFVAPDDRVVFRTCEREQNRVVFQMGTSDAERALAVARLVENDVAGIDVNMGCPKQYSTKGGMGAALLSDPDKIEKILSTLVKGTRRPVTCKIRILPSLEDTLSLVKRIERTGIAAIAVHGRKREERPQHPVSCEVIKAIADTLSIPVIANGGSHDHIQQYSDIEDFRQATAASSVMVARAAMWNPSIFLKEGLRPLEEVMQKYIRYAVQYDNHYTNTKYCLCQMLREQLESPQGRLLHAAQSSREICEAFGLGAFYEETTQELDAQQARLSAKTSEQTGEPAEDTSGVIKMAVKFDRRAYPAQITPKMCLLEWCRREKLAQPVYETVQRPLDRLFSSIVTVAEQKYQSTLWDKSKKLAEQAAAIVCLRSQGLPEGRLGEESPSLHKRKREAPDQDPGGPRAQELAQPGDLCKKPFVALGSGEESPLEGW
notes: Expressed from a pCAGGS vector in transfected LC319 cells; also called FLAG-tagged and HA-tagged-pCAGGS-IMS-E21; not shown: N-terminal FLAG tag; C-terminal HA tag
  binding result: binds
